How the values were obtained:
[1] = molecular target: thrombin-specific peptide with the cleavage site; experiment: single-particle plasmon sensing (dark-field scattering microscopy of gold nanorods); same sensor; standard deviation of the start time t0 of cleavage among particles against thrombin concentration, fitted with Poisson statistics of the waiting time for the first enzyme to bind to a particle; additional uncertainty of 20 s allowed
[2] = molecular target: thrombin-specific peptide with the cleavage site
[3] = molecular target: thrombin-specific peptide with the cleavage site; experiment: single-particle plasmon sensing (dark-field scattering microscopy of gold nanorods); peptide held on gold nanorods on a coverslip in a flow cell; thrombin 1-300 nM injected at 5 uL/min in 50 mM Tris-HCl, 10 mM CaCl2, 150 mM NaCl, pH 8.4; rate constants of a three-stage kinetic model adjusted to match the plasmon-shift time traces

thrombin-specific peptide with the cleavage site, sequence (peptide, as listed by the source): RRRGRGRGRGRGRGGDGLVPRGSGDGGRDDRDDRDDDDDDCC

- kon [1]: 100000 M⁻¹ s⁻¹
- peptide cleavage rate kb from the kinetic model matched to the plasmon-shift time traces [2]: 0.01 s^–1
- kon [3]: 200000 M⁻¹ s⁻¹
Substance: active thrombin (enzyme)

Reference: paper PMC10616847
